Where “and” joins values, the source holds several entries; their conditions need not be identical. Equal values may be shown once.
How the values were obtained:
[1] = Baseline F18-PSMA-PET/CT: normal tissue evaluation at screening; type: in vivo, human; conditions: individual participants
Description: Participants underwent a standard of care diagnostic ^18F-PSMA-PET/CT at baseline (i,e, within six weeks prior to administration of ^212Pb-Compound 1).
PSMA-PET/CT was conducted using the radiotracer ^18F-PSMA-1007: dose 2.5 MBq/kg (minimum 200 MBq, maximum 300 MBq) with PET acquisition performed approximately 120 minutes post-injection.
Each patient received a baseline PSMA-PET/CT evaluation utilizing an F18-PSMA-PET tracer during the screening period (i.e. prior to ^212Pb-Compound 1 administration).
The pattern of PSMA-PET CT tracer uptake in normal organs is within expectations in each case; with notable uptake in the salivary glands (SUVmax range 20.06-30.7), kidneys (SUVmax range 18.7-35.2) and liver (SUVmax range 14.5-25.5).

[2] = in vivo; cited from earlier work
[3] = set-up: species or system human; conditions: in vivo
Description: (§1) Study drug administration: a single injection of 10 MBq for ^212Pb-Compound 1 was administered for each participant. Administration was by slow bolus IV injection via a 3-way adapter coupled to a conventional isotonic saline solution. • The timepoint of injection of ^212Pb-Compound 1 was defined as Day 0, 0 hours. […] Full blood and plasma were measured separately to investigate ligand in vivo stability. […]
(§2) • Non-invasive gamma camera imaging with both planar gamma imaging (whole body scintigraphy) and SPECT/CT was performed at 2 timepoints following injection of ^212Pb-Compound 1: • 1-3 hours and 16-24 hours • The planar gamma camera imaging was acquired immediately before the SEPCT/CT imaging • Performed on a Siemens Symbia Intevo Bold hybrid scanner using a medium energy low penetration (MELP) or high energy (HE) collimator. • The same scanner was used for all acquisitions of all patients in the study. • Scanner room background radiation was measured 0.5 m from the SPECT/CT scanner table, over a time period of one minute, before the participant entered the scanner room. […]

[4] = set-up: species or system human; conditions: in vivo; remark: listed apart in the source
Description: as §1, §2

[5] = set-up: species or system human; conditions: in vivo; remark: listed apart in the source
Description: The sample size was three participants.
Study drug administration: a single injection of 10 MBq for ^212Pb-Compound 1 was administered for each participant. Administration was by slow bolus IV injection via a 3-way adapter coupled to a conventional isotonic saline solution. • The timepoint of injection of ^212Pb-Compound 1 was defined as Day 0, 0 hours. Imaging, whole-body probe and blood assessments of clearance were performed at the following timepoints: • Gamma camera imaging (both planar and SPECT/CT) was scheduled 1-3 hours and 16-24 hours post injection. • Clearance was assessed with blood sampling and whole-body probe measurements at the following timepoints: 15 min after dose (+/−15 min window), 1 h after dose (+1 h window), 4 h after dose (+2 h window), 16 h after dose (+8 h window). Full blood and plasma were measured separately to investigate ligand in vivo stability. Follow-up: Patients were followed-up for safety and tolerability for 28 days post-administration of ^212Pb-Compound 1, with visits on Day 14 and Day 28. Adverse events were reported per CTCAE v5 from time of informed consent until end of follow-up. Patients were followed-up for efficacy biomarkers (PSA, ALP) for 28 days post-administration of ^212Pb-Compound 1.
All 3 patients consented and administered ^212Pb-Compound 1 subsequently completed the planned safety follow up period (no withdrawals from the clinical trial).

Structure (SMILES): O=C(O)CC[C@H](NC(=O)N[C@@H](CCCCNC(=O)[C@H](Cc1ccc2ccccc2c1)NC(=O)c1ccc(CNC(=O)[C@H](CCC(=O)O)NC(=O)[C@H](CCC(=O)O)NC(=O)c2ccc([18F])nc2)cc1)C(=O)O)C(=O)O [Compound F18-PSMA-PET]
- SUV max, Bladder, including contents [1]: 8.3 and 2.8 and 3
- SUV max, Blood pool [1]: 1.2 and 0.8 and 1.3
- SUV max, Bone Marrow [1]: 1.8 and 1.3 and 1
- SUV max, Kidneys [1]: 35.2 and 26.8 and 18.7
- SUV max, Liver [1]: 14.5 and 25.5 and 14.8
- SUV max, Salivary gland [1]: 30.7 (2×) and 20.6
- SUV max, Spleen [1]: 16.2 and 7.2 and 15.3
- SUV mean, Bladder, including contents [1]: 6.2 and 2.3 (2×)
- SUV mean, Blood pool [1]: 0.7 and 0.6 and 1.1
- SUV mean, Bone Marrow [1]: 1.3 and 0.9 and 0.7
- SUV mean, Kidneys [1]: 19.2 and 16.1 and 11.4
- SUV mean, Liver [1]: 11.3 and 21.8 and 12.5
- SUV mean, Salivary gland [1]: 18.5 and 13 and 19.8
- SUV mean, Spleen [1]: 12.6 and 6.1 and 13.7
- SUV max, Kidneys ([1]; listed as PSMA-PET CT tracer): 18.7 to 35.2
- SUV max, Liver ([1]; listed as PSMA-PET CT tracer): 14.5 to 25.5

Structure (SMILES): O=C([O-])CN1CCN(CC(=O)[O-])CCN(CC(=O)NCC2CCC(C(=O)N[C@@H](Cc3ccc4ccccc4c3)C(=O)NCCCC[C@H](NC(=O)N[C@@H](CCC(=O)O)C(=O)O)C(=O)O)CC2)CCN(CC(=O)[O-])CC1.[177Lu+3] (stereo partly shown) [^177Lu-PSMA-617, lutetium Lu 177 vipivotide tetraxetan]
- Dry mouth (i.e., xerostomia), proportion of population [2]: 38.8%

Structure (SMILES): NC(=O)CN1CCN(CC(N)=O)CCN(CC(N)=O)C(Cc2ccc(NC(=S)NC[C@H]3CC[C@H](C(=O)N[C@@H](Cc4ccc5ccccc5c4)C(=O)NCCCC[C@H](NC(=O)N[C@@H](CCC(=O)O)C(=O)O)C(=O)O)CC3)cc2)CN(CC(N)=O)CC1 (stereo partly shown) [^212Pb-Compound 1, metal not drawn]
- Participants with ^212Pb-Compound 1 uptake by the liver [3]: one participant at the 1 hr time point
- ^212Pb-Compound 1 uptake in retrocaval lymph node metastasis (most PSMA-avid lesion) [4]: uptake at the 1 hour time point for one lesion
- Adverse reactions, SAEs, SUSARs or deaths [5]: No adverse reactions, serious adverse events (SAEs), suspected unexpected serious adverse events (SUSARs) or deaths were reported
- CTCAE grade of the TEAE abdominal pain [5]: 2
- Differences or trends in hematology, biochemistry and urinalysis from baseline (incl. ALT, AST, bilirubin, albumin, egfr, creatinine) [5]: no clinically significant differences or trends
- ECOG performance score at all visits evaluated [5]: 1
- ECOG performance status, change from baseline to end of study visit [5]: remained unchanged
- Individual measurements of hematological and clinical chemistry parameters [5]: within their normal reference ranges
- Investigator-assessed relationship of all TEAEs to ^212Pb-Compound 1 [5]: probably unrelated
- Number (%) of Participants with TEAE: Abdominal pain [5]: 1 (33)
- Number (%) of Participants with TEAE: Constipation [5]: 1 (33)
- Number (%) of Participants with TEAE: Erythema [5]: 1 (33)
- Number (%) of Participants with TEAE: General disorders and administration site conditions [5]: 1 (33)
- Number (%) of Participants with TEAE: Injury, poisoning and procedural complications [5]: 1 (33)
- Number (%) of Participants with TEAE: Localized oedema [5]: 1 (33)
- Number (%) of Participants with TEAE: Skin and subcutaneous tissue disorders [5]: 1 (33)
- Number (%) of Participants with TEAE: Tooth fracture [5]: 1 (33)
- Number (%) of Participants with TEAE: Vomiting [5]: 1 (33)
- Performance status (ECOG) [5]: 1
- Risk of xerostomia inferred from absent salivary gland uptake [5]: lower risk of xerostomia

Source: patent publication US20250281653A1, “METHODS FOR TREATING PROSTATE CANCER WITH RADIOPHARMACEUTICALS” (ARTBIO, Inc., priority 2024, published 2025)
